Reference: paper PMC5673899, “Structural basis for receptor recognition of pollen tube attraction peptides” (Nature Communications, 2017)

Experiments:
AtPRK6^LRR = experiment: ITC, AtLURE1.2 titrated into AtPRK6^LRR; parameters: species or system Arabidopsis thaliana; conditions: MicroCalorimeter ITC200, 25 °C, 200 mM HEPES pH 7.0, 100 mM NaCl, ~0.9 mM AtLURE1.2 into 0.08 mM AtPRK6^LRR, 20 × 2 μl at 2.5-min intervals, insect cell proteins, read-out: dissociation constant / binding affinity
Source text: The genes of AtPRK3 ^LRR (residues 1–241), AtPRK4 ^LRR (residues 1–277), AtPRK5 ^LRR (residues 1–279), AtPRK6 ^LRR (residues 1–262), MIK1 ^LRR (residues 1–633), MIK2 ^LRR (residues 1–707) were amplified from Arabidopsis cDNA library by PCR and cloned into pFastBac-1 vector with a C-terminal 6 × His-tag. Their identities were confirmed by sequencing. The mature form of AtLURE1.1 (residues 20–94), AtLURE1.2 (residues 20–90), AtLURE1.3 (residues 21–91), and AtLURE1.4 (residues 20–90) were cloned into pFastBac-1 vector, with a modified N-terminal hemolin signal peptide and 6 × His-SUMO tag. Point mutation constructs were generated by QuickChange Site-Directed Mutagenesis Kit (Strategene). All the proteins were expressed using the Bac-to-Bac baculovirus expression system (Invitrogen) in High Five cells at 22 °C. One liter of High Five cells (2.0 × 10^6 cells mL^−1) cultured in the medium from Expression Systems was infected with 25 ml recombinant baculovirus and the media was collected after 72 h of infection. Secreted LRR proteins were purified using Ni-NTA (Novagen) and size-exclusion chromatography (Hiload 200, GE Healthcare) in buffer containing 10 mM Bis-Tris pH 6.0 and 100 mM NaCl. The His-SUMO tag of the AtLURE proteins was removed by Prescission Protease at 4 °C overnight in buffer containing 25 mM Tris pH 8.0 and 150 mM NaCl. […]

[1] = tested on: semi-in-vivo pollen tubes; experiment: Gelatin-beads assay, wild-type semi-in-vivo pollen tubes; type: cell-based, Arabidopsis; conditions: gelatin beads containing 250 nM peptide
Description: (§1) Attraction activities of mutant AtLURE1.2 peptides were examined for semi-in-vivo pollen tubes growing through cut, pollinated pistils by gelatin-beads assay and wavy assay, [20]. For the gelatin-beads assay, pollen tubes were grown on solid pollen germination medium poured into a mold made with 1-mm thick silicone rubber and cover glasses. After hand-pollination, the topside cover glass was removed and the medium was covered with hydrated silicone oil (KF-96–100CS; Shin-Etsu). Attraction of pollen tubes toward the peptide was evaluated using AtLURE1 peptide containing gelatine beads under an inverted microscope (IX71, Olympus) equipped with a micro-manipulator (Narishige). For the AtLURE1-responsive wavy assay, the purified AtLURE1.2 peptide was added to solid pollen germination medium, which was melted at 70 °C and then cooled to a certain degree. The mixture was mixed by vortexing and poured into the mold. Pollen tubes of each genotype were grown through cut styles, as mentioned above. Each peptide (25 μM in 10 mM Bis-Tris (pH 6.0) and 100 mM NaCl) was diluted to 250 nM by cultivation medium in both assays. To examine reactivity of PRK6 mutants to AtLURE1.2, constructs for PRK6 mutants, D234A, N239A, and ΔN239I240, were generated by site-directed mutagenesis from a wild-type PRK6 vector, pPZP221-pPRK6::PRK6-mRuby2 (ref. [20]). Wild-type and mutant PRK6 constructs were introduced into prk6–1 plant. After transformants were selected by the same criteria as previously, beads assay and wavy assay were performed in several T1 lines and single T2 line, respectively, for each genotype using 250 nM wild-type AtLURE1.2 peptide.

[2] = tested on: prk6 pollen tubes transformed with PRK6 N239A; experiment: Gelatin-beads assay, prk6 pollen tubes transformed with N239A PRK6; type: cell-based, Arabidopsis; conditions: beads with 250 nM wild-type AtLURE1.2; 10–23 pollen tubes per assay, three assays
Description: as §1, with “Wild-type and mutant PRK6 constructs were introduced into prk6–1 plant. After transformants were selected by the same criteria as previously, beads assay and wavy assay were performed in several T1 lines and single T2 line, respectively, for each genotype using 250 nM wild-type AtLURE1.2 peptide.” left out

MDIS1 = conditions: cited from earlier work
Source text: (§2) More recently, progress has been made in the identification of sensory receptors for external cues during pollen tube guidance, [18]. Through genetic screening, two research groups identified different pollen tube specific receptor kinases (RKs) which can function as the receptors of AtLURE1 (refs. [19], [20]). […] By contrast, our data ... || page 2: co-receptor in the signaling system. Typos : - line 167 : Lue242 instead of Leu242 Reviewer #3 (Remarks to the Author): The Zhang et al. manuscript is a continuation of the study of pollen tube guidance to its female target to deliver sperm for fertilization, starting almost twenty years ago by the Higashiyama group, which recently reported a number of pollen receptor kinases (PRKs) as receptors for the attractant LURE1(- 2) from Arabidopsis. The Zhang et al study here caps it by elucidating the structure of LURE1-PRK6 on the atomic level. In principle, the study is an imminently publi ...

MIK1 = conditions: cited from earlier work
Source text: as §2

MIK2 = conditions: cited from earlier work
Source text: as §2

B1: AtLURE1.2: mature form of AtLURE1.2 (residues 20–90), defensin-like cysteine-rich peptide expressed in insect cells (protein)
chain: TLINGSSDEERTYSFSPTTSPFDPRSLNQELKIGRIGYCFDCARACMRRGKYIRTCSFERKLCRCSISDIK
modifications: left off: His6, N-terminal, cleaved | SUMO, N-terminal, cleaved
notes: mature form of AtLURE1.2 (residues 20–90), defensin-like cysteine-rich peptide expressed in insect cells
- Kd (AtPRK6^LRR): ~3000 nM
- pollen tube attraction activity (in words) ([1]; Tukey−Kramer test, P < 0.05): efficiently attracted pollen tubes
- attraction frequency of pollen tubes ([1]; mean ± SD, 9–16 pollen tubes per assay, 3−5 assays): 94 ± 7%
- pollen tube attraction / reactivity [2]: comparable reactivity to the wild-type PRK6
- binding to MDIS1 (MDIS1): directly binds
- binding to MIK1 (MIK1): directly binds
- binding to MIK2 (MIK2): directly binds
